Measurements published in patent publication US12679878B2, “CRF2 receptor agonists and their use in therapy” (SANOFI, priority 2020, dated 2026).
Starred links: 1 amine or outer side, 2 acyl side, 3 side chain; linkers in the order of their positions; H or OH if unused. Non-standard residues stand in square brackets, D forms with d. Groups on a side chain read outwards from the residue. *: point of attachment. C18 diacid = O=C(O)CCCCCCCCCCCCCCCCC(=O)*; γGlu = O=C(O)[C@H](CCC(=O)[*:2])N[*:1]; AEEA = NCCOCCOCC(=O)O; Aib = CC(C)(N)C(=O)O

Molecular target: human corticotropin-releasing factor 2α (CRF2 α receptor) (human), Q13324
Sequence (Q13324 20-411): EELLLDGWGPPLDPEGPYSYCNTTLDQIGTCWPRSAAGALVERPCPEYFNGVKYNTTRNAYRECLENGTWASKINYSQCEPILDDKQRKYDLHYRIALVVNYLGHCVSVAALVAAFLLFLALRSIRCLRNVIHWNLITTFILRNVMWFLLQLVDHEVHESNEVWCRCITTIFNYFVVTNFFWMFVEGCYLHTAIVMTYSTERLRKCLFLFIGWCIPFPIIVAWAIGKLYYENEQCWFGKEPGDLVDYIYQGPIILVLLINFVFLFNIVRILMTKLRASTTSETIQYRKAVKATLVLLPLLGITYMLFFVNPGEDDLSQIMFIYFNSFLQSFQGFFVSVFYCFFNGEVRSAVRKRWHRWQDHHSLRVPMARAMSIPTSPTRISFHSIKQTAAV
Test: cell-based or functional assay

Row | EC50 [nM], 0% HSA [nM] | EC50 [nM], 0.1% HSA [nM] | Binder
1 | 13.9 | – | Ac-IVLSLD[dV]PIELK([AEEA-AEEA-γGlu-C18 diacid])QILLEQERQK[Aib]QREQAEKNEQILEQV-NH2 (SMILES CC[C@H](C)[C@H](NC(C)=O)C(=O)N[C@H](C(=O)N[C@@H](CC(C)C)C(=O)N[C@@H](CO)C(=O)N[C@@H](CC(C)C)C(=O)N[C@@H](CC(=O)O)C(=O)N[C@@H](C(=O)N1CCC[C@H]1C(=O)N[C@H](C(=O)N[C@@H](CCC(=O)O)C(=O)N[C@@H](CC(C)C)C(=O)N[C@@H](CCCCNC(=O)COCCOCCNC(=O)COCCOCCNC(=O)CC[C@H](NC(=O)CCCCCCCCCCCCCCCCC(=O)O)C(=O)O)C(=O)N[C@@H](CCC(N)=O)C(=O)N[C@H](C(=O)N[C@@H](CC(C)C)C(=O)N[C@@H](CC(C)C)C(=O)N[C@@H](CCC(=O)O)C(=O)N[C@@H](CCC(N)=O)C(=O)N[C@@H](CCC(=O)O)C(=O)N[C@@H](CCCNC(=N)N)C(=O)N[C@@H](CCC(N)=O)C(=O)N[C@@H](CCCCN)C(=O)NC(C)(C)C(=O)N[C@@H](CCC(N)=O)C(=O)N[C@@H](CCCNC(=N)N)C(=O)N[C@@H](CCC(=O)O)C(=O)N[C@@H](CCC(N)=O)C(=O)N[C@@H](C)C(=O)N[C@@H](CCC(=O)O)C(=O)N[C@@H](CCCCN)C(=O)N[C@@H](CC(N)=O)C(=O)N[C@@H](CCC(=O)O)C(=O)N[C@@H](CCC(N)=O)C(=O)N[C@H](C(=O)N[C@@H](CC(C)C)C(=O)N[C@@H](CCC(=O)O)C(=O)N[C@@H](CCC(N)=O)C(=O)N[C@H](C(N)=O)C(C)C)[C@@H](C)CC)[C@@H](C)CC)[C@@H](C)CC)C(C)C)C(C)C) [SEQ ID NO: 168]
2 | 4.01 | 98.1 | Ac-IVLSLD[dV]PIKLK([AEEA-AEEA-γGlu-C18 diacid])QILLEQERQE[Aib]QREQAEKNEQILEQV-NH2 (SMILES CC[C@H](C)[C@H](NC(C)=O)C(=O)N[C@H](C(=O)N[C@@H](CC(C)C)C(=O)N[C@@H](CO)C(=O)N[C@@H](CC(C)C)C(=O)N[C@@H](CC(=O)O)C(=O)N[C@@H](C(=O)N1CCC[C@H]1C(=O)N[C@H](C(=O)N[C@@H](CCCCN)C(=O)N[C@@H](CC(C)C)C(=O)N[C@@H](CCCCNC(=O)COCCOCCNC(=O)COCCOCCNC(=O)CC[C@H](NC(=O)CCCCCCCCCCCCCCCCC(=O)O)C(=O)O)C(=O)N[C@@H](CCC(N)=O)C(=O)N[C@H](C(=O)N[C@@H](CC(C)C)C(=O)N[C@@H](CC(C)C)C(=O)N[C@@H](CCC(=O)O)C(=O)N[C@@H](CCC(N)=O)C(=O)N[C@@H](CCC(=O)O)C(=O)N[C@@H](CCCNC(=N)N)C(=O)N[C@@H](CCC(N)=O)C(=O)N[C@@H](CCC(=O)O)C(=O)NC(C)(C)C(=O)N[C@@H](CCC(N)=O)C(=O)N[C@@H](CCCNC(=N)N)C(=O)N[C@@H](CCC(=O)O)C(=O)N[C@@H](CCC(N)=O)C(=O)N[C@@H](C)C(=O)N[C@@H](CCC(=O)O)C(=O)N[C@@H](CCCCN)C(=O)N[C@@H](CC(N)=O)C(=O)N[C@@H](CCC(=O)O)C(=O)N[C@@H](CCC(N)=O)C(=O)N[C@H](C(=O)N[C@@H](CC(C)C)C(=O)N[C@@H](CCC(=O)O)C(=O)N[C@@H](CCC(N)=O)C(=O)N[C@H](C(N)=O)C(C)C)[C@@H](C)CC)[C@@H](C)CC)[C@@H](C)CC)C(C)C)C(C)C) [SEQ ID NO: 169]
